Data from PMC9461191 (Journal of Translational Medicine, 2022).

Tests used:
[1] = target: HuB6 (human); assay: SPR; HuB6 and human FcγRs; who was immobilised not given; n = 3
[2] = target: HuB6; assay: flow cytometry on cells; conditions: Ab 10 µg/ml (highest point of the titration); antigen transfected into Expi293 cells; parent: est. 17000; read off a plot
[3] = target: urelumab; assay: flow cytometry on cells; conditions: Ab 10 µg/ml (highest point of the titration); antigen transfected into Expi293 cells; parent: est. 17000; read off a plot
[4] = target: utomilumab; assay: flow cytometry on cells; conditions: Ab 10 µg/ml (highest point of the titration); antigen transfected into Expi293 cells; parent: est. 14000; read off a plot
[5] = target: T1, Hu4-1BB-His (Homo sapiens, UniProt Q07011); assay: BLI; Octet Red96, 25 °C; antibody loaded on AHC biosensors; Hu4-1BB-His 200-12.5 nM in 1 × PBS; 500 s association, 30 min dissociation; conditions: both partners purified
T1 construct: human 4-1BB (CD137, TNFRSF9), His-tagged, bought; No catalogue number is printed; also called human 4-1BB; source: bought: Acro biosystems

[6] = target: T2, human 4-1BB ECD (Homo sapiens, UniProt Q07011); assay: SPR; Biacore T200, 25 °C; human 4-1BB ECD amine-coupled on a CM5 chip to 300 RU; antibody from 80 μg/mL in two-fold dilutions injected at 30 μL/min; 1:1 Langmuir model; conditions: both partners purified
T2 construct: human 4-1BB (CD137, TNFRSF9), extracellular domain, coupled to the CM5 chip for SPR; also called CD137; TNFRSF9

[7] = target: T3, mouse 4-1BB-ECD-mFc (Mus musculus, UniProt P20334); assay: ELISA; indirect ELISA; plates coated with 4-1BB-mFc (1 μg/mL mouse, 350 ng/mL cynomolgus) in carbonate buffer; serially diluted antibodies, room temperature 2 h; HRP goat anti-human Fc; conditions: both partners purified
T3 construct: mouse 4-1BB, UniProt P20334, extracellular domain; also called Mu4-1BB; murine 4-1BB; source: Expi293F, transfected, purified (MabSelect PrismA); not shown: Fc (mouse), C-terminal, kept

[8] = target: T4, cynomolgus 4-1BB-mFc (Macaca fascicularis, UniProt A9YYE7); assay: as above; conditions: both partners purified
T4 construct: cynomolgus monkey 4-1BB, UniProt A9YYE7, extracellular domain; also called Cy4-1BB; cynomolgus monkey 4-1BB; source: Expi293F, transfected, purified (MabSelect PrismA); not shown: Fc (mouse), C-terminal, kept

human FcγRIA, sequence (P12314 16-374): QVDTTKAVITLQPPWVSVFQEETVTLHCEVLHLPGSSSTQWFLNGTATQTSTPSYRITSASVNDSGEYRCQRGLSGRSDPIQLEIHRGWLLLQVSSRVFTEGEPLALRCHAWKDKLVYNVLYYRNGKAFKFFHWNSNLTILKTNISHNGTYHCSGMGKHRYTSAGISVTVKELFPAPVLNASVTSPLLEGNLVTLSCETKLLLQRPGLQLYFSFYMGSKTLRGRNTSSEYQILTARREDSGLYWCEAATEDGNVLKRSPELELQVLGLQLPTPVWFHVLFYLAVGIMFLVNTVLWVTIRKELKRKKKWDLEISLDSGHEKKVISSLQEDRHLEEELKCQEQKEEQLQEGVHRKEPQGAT
HuB6 (human), sequence (heavy, as listed by the source, chain 1 of 2): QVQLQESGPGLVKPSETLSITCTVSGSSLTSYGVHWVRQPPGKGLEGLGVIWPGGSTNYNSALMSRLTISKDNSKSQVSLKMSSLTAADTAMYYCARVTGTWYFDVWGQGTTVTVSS
HuB6 (human), sequence (light, as listed by the source, chain 2 of 2): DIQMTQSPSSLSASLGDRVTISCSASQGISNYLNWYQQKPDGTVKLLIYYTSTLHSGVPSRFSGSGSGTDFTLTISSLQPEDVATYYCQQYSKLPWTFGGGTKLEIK
T3 sequence (P20334 24-187): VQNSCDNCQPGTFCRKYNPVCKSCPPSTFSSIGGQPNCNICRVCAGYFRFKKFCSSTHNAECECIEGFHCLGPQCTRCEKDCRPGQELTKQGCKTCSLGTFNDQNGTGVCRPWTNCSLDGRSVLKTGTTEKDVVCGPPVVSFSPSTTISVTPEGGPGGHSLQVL
T2 sequence (Q07011 24-186): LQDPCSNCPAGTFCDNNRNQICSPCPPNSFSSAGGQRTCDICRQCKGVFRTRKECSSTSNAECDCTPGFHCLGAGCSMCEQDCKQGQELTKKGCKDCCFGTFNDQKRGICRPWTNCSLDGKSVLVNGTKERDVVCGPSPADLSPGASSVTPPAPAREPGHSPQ

Row | Molecule | response [2] | response [3] | response [4] | binding result [7] | other results
1 | human FcγRIA (from UniProt P12314 16-374) (receptor) |  |  |  |  | Kd [1]: 8.86 nM; koff [1]: 0.0045 s⁻¹; kon [1]: 531000 M⁻¹ s⁻¹
2 | wild-type (WT) human 4-1BB antigen on Expi293F cells (from UniProt Q07011) I132 | 20000 Mean FITC | 17000 Mean FITC | 3900 Mean FITC |  | 
3 | wild-type (WT) human 4-1BB antigen on Expi293F cells (from UniProt Q07011) M101 | 19000 Mean FITC | 17000 Mean FITC | 2600 Mean FITC |  | 
4 | wild-type (WT) human 4-1BB antigen on Expi293F cells (from UniProt Q07011) N42 | 15000 Mean FITC | 900 Mean FITC | 13000 Mean FITC |  | 
5 | urelumab (antibody, V domains shown, IgG4; IgG4 mAb; also called BMS-663513; urelumab-IgG4; source: Expi293F, transfected, purified (MabSelect PrismA)) VH: QVQLQQWGAGLLKPSETLSLTCAVYGGSFSGYYWSWIRQSPEKGLEWIGEINHGGYVTYNPSLESRVTISVDTSKNQFSLKLSSVTAADTAVYYCARDYGPGNYDWYFDLWGRGTLVTVSS VL: EIVLTQSPATLSLSPGERATLSCRASQSVSSYLAWYQQKPGQAPRLLIYDASNRATGIPARFSGSGSGTDFTLTISSLEPEDFAVYYCQQRSNWPPALTFGGGTKVEIK |  |  |  | no binding | Kd [5]: 5.76 ± 0.85 nM; Kd [6]: 5.34 ± 0.49 nM
6 | utomilumab (antibody, V domains shown, IgG2; IgG2 mAb; also called PF-05082566; utomilumab-IgG2; source: Expi293F, transfected, purified (MabSelect PrismA)) VH: EVQLVQSGAEVKKPGESLRISCKGSGYSFSTYWISWVRQMPGKGLEWMGKIYPGDSYTNYSPSFQGQVTISADKSISTAYLQWSSLKASDTAMYYCARGYGIFDYWGQGTLVTVSS VL: SYELTQPPSVSVSPGQTASITCSGDNIGDQYAHWYQQKPGQSPVLVIYQDKNRPSGIPERFSGSNSGNTATLTISGTQAMDEADYYCATYTGFGSLAVFGGGTKLTVL |  |  |  | no binding | EC50 [8]: 0.038 nM
